Assay results as given in US20250339531A1, “DUX4 POLYPEPTIDES AND NUCLEIC ACIDS FOR TREATING INFLAMMATORY AND AUTOIMMUNE CONDITIONS” (Fred Hutchinson Cancer Center, priority 2021, published 2025).

B1: ENDOD1 (protein)
chain: RLVGEEEAGFGECDKFFYAGTPPAGLAADSHVKICQRAEGAERFATLYSTRDRIPVYSAFRAPRPAPGGAEQRWLVEPQIDDPNSNLEEAINEAEAITSVNSLGSKQALNTDYLDSDYQRGQLYPFSLSSDVQVATFTLTNSAPMTQSFQERWYVNLHSLMDRALTPQCGSGEDLYILTGTVPSDYRVKDKVAVPEFVWLAACCAVPGGGWAMGFVKHTRDSDIIEDVMVKDLQKLLPFNPQLFQNNCGETEQDTEKMKKILEVVNQIQDEERMVQSQKSSSPLSSTRSKRSTLLPPEASEGSSSFLGKLMGFIATPFIKLFQLIYYLVVAILKNIVYFLWCVTKQVINGIESCLYRLGSATISYFMAIGEELVSIPWKVLKVVAKVIRALLRILCCLLKAICRVLSIPVRVLVDVATFPVYTMGAIPIVCKDIALGLGGTVSLLFDTAFGTLGGLFQVVFSVCKRIGYKVTFDNSGEL
B2: IGF2BP2 (protein)
chain: MMNKLYIGNLSPAVTADDLRQLFGDRKLPLAGQVLLKSGYAFVDYPDQNWAIRAIETLSGKVELHGKIMEVDYSVSKKLRSRKIQIRNIPPHLQWEVLDGLLAQYGTVENVEQVFAFSLVNTDTETAVVNVTYATREEAKIAMEKLSGHQFENYSFKISYIPDEEVSSPSPPQRAQRGDHSSREQGHAPGGTSQARQIDFPLRILVPTQFVGAIIGKEGLTIKNITKQTQSRVDIHRKENSGAAEKPVTIHATPEGTSEACRMILEIMQKEADETKLAEEIPLKILAHNGLVGRLIGKEGRNLKKIEHETGTKITISSLQDLSIYNPERTITVKGTVEACASAEIEIMKKLREAFENDMLAVNQQANLIPGLNLSALGIFSTGLSVLSPPAGPRGAPPAAPYHPFTTHSGYFSSLYPHHQFGPFPHHHSYPEQEIVNLFIPTQAVGAIIGKKGAHIKQLARFAGASIKIAPAEGPDVSERMVIITGPPEAQFKAQGRIFGKLKEENFFNPKEEVKLEAHIRVPSSTAGRVIGKGGKTVNELQNLTSAEVIVPRDQTPDENEEVIVRIIGHFFASQTAQRKIREIVQQVKQQEQKYPQGVASQRSK
B3: SERPINB3 (protein)
chain: MNSLSEANTKFMFDLFQQFRKSKENNIFYSPISITSALGMVLLGAKDNTAQQIKKVLHFDQVTENTTGKAATYHVDRSGNVHHQFQKLLTEFNKSTDAYELKIANKLFGEKTYLFLQEYLDAIKKFYQTSVESVDFANAPEESRKKINSWVESQTNEKIKNLIPEGNIGSNTTLVLVNAIYFKGQWEKKFNKEDTKEEKFWPNKNTYKSIQMMRQYTSFHFASLEDVQAKVLEIPYKGKDLSMIVLLPNEIDGLQKLEEKLTAEKLMEWTSLQNMRETRVDLHLPRFKVEESYDLKDTLRTMGMVDIFNGDADLSGMTGSRGLVLSGVLHKAFVEVTEEGAEAAAATAVVGFGSSPTSTNEEFHCNHPFLFFIRQNKTNSILFYGRFSSP

System: proteins that co-immunoprecipitated with DUX4-CTD constructs expressed in MB135 myoblasts
Test: LC-MS of proteins co-immunoprecipitated with DUX4-CTD (Table 1) and western validation
Type: binding, human
Design: key to 4. mL1dL2 + Dox + IFNG / 4. + IFNG mix / 4. longCTD + Dox + IFNG / 3. + IFNg + Dox longCTD / 3. + Dox longCTD / 3. + IFNG longCTD: peptide-spectrum matches (PSMs) per protein
Conditions: kind of count not given; for 4. + IFNG mix: LC-MS value per protein co-immunoprecipitated from MB135 myoblasts, + IFNG mix sample (no Dox); for 4. mL1dL2 + Dox + IFNG: LC-MS value per protein co-immunoprecipitated with DUX4-CTD construct mL1dL2 in MB135 myoblasts
Excerpt: As an unbiased method to identify proteins that interact with the C-terminal region of DUX4, liquid chromatography mass spectroscopy (LC-MS) was used to identify proteins that co-immunoprecipitated with DUX4-CTD constructs expressed in MB135 myoblasts. In the first experiment, MB135iDUX4-CTD cells were used, either untreated, treated with doxycycline alone, or with both doxycycline and IFNG. In the second experiment, MB135iDUX4-CTD and MB135iDUX4mL1dL2 cells were used, both treated with doxycycline and IFNG, compared to these two cell lines untreated and combined as a control. Proteins with a minimum of 2 peptide spectrum matches (PSMs) in at least one sample that were identified in both experiments were assigned to one of ten categories (see Methods) to separate candidate interactors from other categories that might be co-purified because of obligate interactions (e.g., proteasome or ribosome) or might be less likely to be physiologically relevant (e.g., cytoskeletal proteins). Candidate interactors were then ranked based on the total PSMs for that protein across all samples.
Centrifugation at 2500 rcf at 4° C. for 5 min pelleted the nuclei, supernatant was discarded, and nuclei resuspended in 1 mL IP buffer pH 7.4 (25 mM Tris-HCl pH 7.5, 175 mM NaCl, 1 mM EDTA, 0.2% NP-40, 5% glycerol) and incubated for 1 hour at 4° C. with rotation then spun at 21000 rcf for 10 minutes at 4° C. to pellet insoluble debris. Protein concentration was determined using the Pierce BCA Protein Assay Kit (ThermoFisher, 23225). An equivalent amount of protein per sample was pre-cleared with Dynabeads Protein G (Invitrogen) bound to mouse IgG (Abcam #131368) for 1 hour at 4° C. with rotation. FLAG-tagged constructs were then immunoprecipitated with Dynabeads Protein G beads coupled to mouse anti-FLAG M2 mAb (Sigma F3165) for 3 hours at 4° C. with rotation. Beads were washed 3× with 1 mL IP buffer and eluted by adding 2× NuPage LDS Sample Buffer (Thermo Fisher, diluted from 4× with PBS) to the beads and heating for 10 minutes at 70° C.
For LC-MS, anti-FLAG immunoprecipitation was performed with beads cross-linked to the anti-FLAG antibody and the proteins competitively eluted with FLAG peptide. Eluted protein samples were electrophoresed into a NuPage 4-12% Bis-Tris gel, excised, and processed by the Fred Hutchinson Cancer Research Center Proteomics Core. Samples were reduced, alkylated, digested with trypsin, desalted, and run on the Orbitrap Eclipse Tribid Mass Spectrometer (Thermo Fisher). Proteomics data were analyzed using Proteome Discoverer 2.4 against a Uniprot human database that included common contaminants using Sequest HT and Percolator for scoring. […] Proteins that were identified in at least one sample from both independent experiments with at least 2 PSMs in one sample were assigned to one of ten categories: 1, candidates; 2, cytoskeletal associated; 3, cytoskeletal; 4, ribosome/translation associated; 5, proteasome associated; 6, membrane or extracellular; ER, golgi, or vesicle associated; 8, lipid metabolism; 9, chaperones; 10, nuclear import or nuclear membrane associated. The proteins in category 1 were further investigated for interactions with DUX4.

Molecule	4. + IFNG mix	4. mL1dL2 + Dox + IFNG
B1	1	1
B2		1
B3	2	
